Bridges are numbered along the chain shown (N, C = ends). Where no end group is shown, it is not given here. [ ]: non-standard residue; d: D form. Trp(5-OH) = N[C@@H](Cc1c[nH]c2ccc(O)cc12)C(=O)O; Phe(4-NH2) = Nc1ccc(C[C@H](N)C(=O)O)cc1; βAla = NCCC(=O)O
system: PDZ3cα fragment; assay: not given; conditions: ref [31]; cited from earlier work

Molecule | fold higher affinity for PDZ3cα fragment than for the isolated PDZ3 domain [fold]
-YKQTSV [CRIPT linear PBM] | 21

same assay, conditions: relative to isolated PDZ domains; ref [10], [30]; cited from earlier work

Molecule | fold higher affinity to the longer PDZ3cα fragment [fold]
-VQQTRV [SynGAP PBM] | 15

molecular target: PSD-95 PDZ3cα protein (residues R309-S422) (UniProt P78352); assay: SPR; conditions: not given
Sequence (P78352 309-422): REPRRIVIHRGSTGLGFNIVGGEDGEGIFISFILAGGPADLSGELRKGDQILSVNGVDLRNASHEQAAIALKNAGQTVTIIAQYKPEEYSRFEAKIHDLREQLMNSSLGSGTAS

Kd [µM] | koff [s⁻¹] | kon [M⁻¹ s⁻¹] | Molecule
0.121 | 0.0261 | 216000 | F4H (peptide 11), SYNGAP peptide with the substitution F4H
0.101 | 0.00294 | – | V8I (peptide 10), SYNGAP peptide with the substitution V8I
0.0584 | 0.00381 | – | V8L (peptide 9), SYNGAP peptide with the substitution V8L

molecular target: PSD-95 PDZ3cα protein (residues R309-S422) (UniProt P78352 309-422); assay: SPR; conditions: not given
Sequence (P78352 309-422): as above

Kd [µM] | koff [s⁻¹] | kon [M⁻¹ s⁻¹] | Molecule
0.0243 | 0.0444 | 1.83e+06 | RRRRRRGSFP[dP]WVQQTRV [D-Pro5 (peptide 16), SYNGAP peptide with d-Pro at the second proline]
0.0209 | 0.0459 | 2.19e+06 | RRRRRRGSFPPW[dV]QQTRV [D-Val8 (peptide 17), SYNGAP peptide with d-Val]
0.446 | 0.0106 | 24000 | RRRRRRGSFPP[Trp(5-OH)]VQQTRV [W7-OHW (peptide 13), SYNGAP peptide with 5-hydroxy-Trp in place of Trp7]
0.0573 | 0.0182 | 317000 | RRRRRRGSFPPWV[dQ]QTRV [D-Gln9 (peptide 18), SYNGAP peptide with d-Gln]
– | 0.0287 | 439000 | CGSFPPWVKKTEV (bridge 10-12; not fully specified (residue 10, bridges)) [Syn3* (peptide 4), active component peptide of Syn3 without the poly-arginine moiety]
0.0061 | 0.0116 | 1.88e+06 | RRRRRRGSF[dP]PWVQQTRV [D-Pro4 (peptide 15), SYNGAP peptide with d-Pro at the first proline]
– | 0.0291 | 76000 | CKNYKKTEV (lactam 6-8 via βAla) [Cyclic peptide derived from CRIPT (peptide 6)]
11.1 | 0.00592 | 1000 | GSFPPWVQ [αC binder (peptide 8), fragment of the SYNGAP peptide made up of only αC helix interacting residues]
0.0678 | 0.0104 | 153000 | RRRRRRGS[Phe(4-NH2)]PPWVQQTRV [F4-NH2F (peptide 12), SYNGAP peptide with ζ-Amino-Phe in place of Phe4]
0.0078 | 0.00493 | 633000 | RRRRRRG[dS]FPPWVQQTRV [D-Ser3 (peptide 14), SYNGAP peptide with d-Ser]

Source: paper PMC10842001 (FEBS letters, 2023)
